B1: human zinc transporter 3 (ZnT3) lacking the N-terminal 49 residues, ZnT3(50-388) (domain or fragment, UniProt Q99726 50-388, looked up)
chain: MPFHHCHRDPLPPPGLTPERLHARRQLYAACAVCFVFMAGEVVGGYLAHSLAIMTDAAHLLADVGSMMGSLFSLWLSTRPATRTMTFGWHRSETLGALASVVSLWMVTGILLYLAFVRLLHSDYHIEGGAMLLTASIAVCANLLMAFVLHQAGPPHSHGSRGAEYAPLEEGPEEPLPLGNTSVRAAFVHVLGDLLQSFGVLAASILIYFKPQYKAADPISTFLFSICALGSTAPTLRDVLRILMEGTPRNVGFEPVRDTLLSVPGVRATHELHLWALTLTYHVASAHLAIDSTADPEAVLAEASSRLYSRFGFSSCTLQVEQYQPEMAQCLRCQEPPQA
notes: Zinc transporter 3 (ZnT3/SLC30A3), human, residues 50-388 (lacking the N-terminal 49 residues); No protease step is described for ZnT3, so the tags were probably still on the chain; also called hZnT3; SLC30A3; source: HEK293F cells, transfected
B2: human zinc transporter 1 (ZnT1), full-length wild type (natural protein, UniProt Q9Y6M5 1-507, looked up)
chain: MGCWGRNRGRLLCMLALTFMFMVLEVVVSRVTSSLAMLSDSFHMLSDVLALVVALVAERFARRTHATQKNTFGWIRAEVMGALVNAIFLTGLCFAILLEAIERFIEPHEMQQPLVVLGVGVAGLLVNVLGLCLFHHHSGFSQDSGHGHSHGGHGHGHGLPKGPRVKSTRPGSSDINVAPGEQGPDQEETNTLVANTSNSNGLKLDPADPENPRSGDTVEVQVNGNLVREPDHMELEEDRAGQLNMRGVFLHVLGDALGSVIVVVNALVFYFSWKGCSEGDFCVNPCFPDPCKAFVEIINSTHASVYEAGPCWVLYLDPTLCVVMVCILLYTTYPLLKESALILLQTVPKQIDIRNLIKELRNVEGVEEVHELHVWQLAGSRIIATAHIKCEDPTSYMEVAKTIKDVFHNHGIHATTIQPEFASVGSKSSVVPCELACRTQCALKQCCGTLPQAPSGKDAEKTPAVSISCLELSNNLEKKPRRTKAENIPAVVIEIKNMPNKQPESSL
notes: Zinc transporter 1 (ZnT1/SLC30A1), human, full-length wild type, codon-optimised synthetic cDNA; residues 138-240 and 448-507 not modelled in the map; also called hZnT1; SLC30A1; source: HEK293F cells, transfected; not shown: FLAG, C-terminal, cleaved; mCherry, C-terminal, cleaved

Key:
[1] = molecular target: the molecule itself; assay: cryo-EM structure; single-particle cryo-EM of purified hZnT3(50-388) in LMNG/CHS micelles, 50 mM MES pH 6.0, 150 mM NaCl, 1 mM ZnSO4; 3.14 Å map
[2] = molecular target: the molecule itself; assay: cryo-EM structure; single-particle cryo-EM of purified hZnT1 in LMNG/CHS micelles, 50 mM HEPES-Na pH 7.5, 150 mM NaCl, no Zn2+ supplement, no EDTA treatment; 3.48 Å map, C1

| Protein | stoichiometry N [1] | stoichiometry N [2] |
| --- | --- | --- |
| B1 | 2 | – |
| B2 | – | 2 |
